In patent US20070219354:

Biological target: T1, coumarin-CO-REVNFEVEFR
T1 chain: REVNFEVEFR

B1: BACE 1, soluble (transmembrane domain and cytoplasmic extension excluded) human protein produced in a baculovirus expression system (protein)
chain: TQHGIRLPLRSGLGGAPLGLRLPRETDEEPEEPGRRGSFVEMVDNLRGKSGQGYYVEMTVGSPPQTLNILVDTGSSNFAVGAAPHPFLHRYYQRQLSSTYRDLRKGVYVPYTQGKWEGELGTDLVSIPHGPNVTVRANIAAITESDKFFINGSNWEGILGLAYAEIARPDDSLEPFFDSLVKQTHVPNLFSLQLCGAGFPLNQSEVLASVGGSMIIGGIDHSLYTGSLWYTPIRREWYYEVIIVRVEINGQDLKMDCKEYNYDKSIVDSGTTNLRLPKKVFEAAVKSIKAASSTEKFPDGFWLGEQLVCWQAGTTPWNIFPVISLYLMGEVTNQSFRITILPQQYLRPVEDVATSQDDCYKFAISQSSTGTVMGAVIMEGFYVVFDRARKRIGFAVSACHVHDEFRTAAVEGPFVTLDMEDCGYNIPQTDESTLMT
With B1 the “substrate processed (end point HPLC assay, 2 nM enzyme, 1.0 µM substrate, 30 min)” value was “less than 10% of substrate is processed by BACE 1”.
